Source: US20250313644A1 (FUTUREGEN BIOPHARMACEUTICAL BEIJING, published 2025)

T1: human TL1A (HuTL1A) (human, UniProt O95150 57-251, limits assumed, biotin-labelled in some assays (site not stated))
T1 construct: Expressed in EXPI-293 cells and purified by Ni-NTA (His-tag); Described as a trimeric antigen; also called TL1A antigen; WT
T1 sequence: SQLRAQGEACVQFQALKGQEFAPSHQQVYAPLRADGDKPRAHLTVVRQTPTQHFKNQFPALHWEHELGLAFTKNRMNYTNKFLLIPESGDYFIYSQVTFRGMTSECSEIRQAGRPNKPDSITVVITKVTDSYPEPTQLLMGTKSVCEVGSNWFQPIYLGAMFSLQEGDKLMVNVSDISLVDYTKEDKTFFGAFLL


Experiments:
human TL1A (HuTL1A) [1] = molecular target: T1, human TL1A (HuTL1A); test: ELISA: biotin-HuTL1A on streptavidin plate, antibody diluted at pH 7.4, HRP-anti-human Fc, OD450
Description: (§1) Corresponding antibodies were added to specific wells, and the antibodies were diluted with sodium dihydrogen phosphate-citrate buffer at pH 7.4, pH 6.0, pH 5.8, or pH 5.6. Binding assay was carried out at room temperature for 30 minutes. After the incubation, the excess antibodies were removed and the wells were washed by PBST. HRP-anti-Human Fc (Sino Biological) was then added into each well and incubated for 30 minutes to detect the bound antibody. The substrate TMB was finally added to develop color for 5-10 minutes. The color development reaction was terminated with 1M sulfuric acid. OD450 nm was recorded on a microplate reader, and the data were processed and fitted by 4 parameter logistic regression.

human TL1A (HuTL1A) [2] = molecular target: T1, human TL1A (HuTL1A); test: as above; remark: listed apart in the source
Description: as §1

human TL1A (HuTL1A) [3] = molecular target: T1, human TL1A (HuTL1A); test: ELISA: biotin-HuTL1A on streptavidin plate, antibody diluted at pH 6.0, HRP-anti-human Fc, OD450
Description: as §1

human TL1A (HuTL1A) [4] = molecular target: T1, human TL1A (HuTL1A); test: BLI (Gator), biotin-HuTL1A on SA probe, pH 7.4; BLI (Gator), pH 7.4
Description: The binding kinetics between monoclonal antibodies and antigens was measured using Gator, a label-free biomolecule interaction analyzer based on the principle of biolayer interference (BLI). […] Then a serial dilutions of single-arm M701 antibodies and control antibodies were added. The antibodies interacted with the antigen captured by the SA probe, and the interaction was analyzed by detecting the signal change of the reflection interference spectrum of the probe surface, and finally the binding kinetics constants of the antibodies were calculated. The kinetic constants of antigen and antibodies were measured at pH 7.4 and 5.6 in sodium dihydrogen phosphate-citrate buffer.

human TL1A (HuTL1A) [5] = molecular target: T1, human TL1A (HuTL1A); test: BLI (Gator), His-tagged TL1A on anti-His probe, pH 7.4
Description: (§2) Then a serial dilutions of single-arm M701 antibodies and control antibodies were added.

[6] = molecular target: T2, cynomolgus monkey/rhesus monkey TL1A (cynomolgus monkey/rhesus monkey); test: as above
T2 construct: also called Cynomolgus/rhesus monkey TL1A
Description: as §2

Row | EC50 (read off the curve) (human TL1A (HuTL1A) [1]) [nM] | EC50 (read off the curve) (human TL1A (HuTL1A) [2]) [nM] | EC50 (read off the curve) (human TL1A (HuTL1A) [3]) [nM] | Kd (human TL1A (HuTL1A) [4]) [nM] | koff (human TL1A (HuTL1A) [4]) [s⁻¹] | kon (human TL1A (HuTL1A) [4]) [M⁻¹ s⁻¹] | Kd (human TL1A (HuTL1A) [5]) [nM] | koff (human TL1A (HuTL1A) [5]) [s⁻¹] | kon (human TL1A (HuTL1A) [5]) [M⁻¹ s⁻¹] | Kd [6] [nM] | koff [6] [s⁻¹] | kon [6] [M⁻¹ s⁻¹] | Binder
1 | ~0.3 | ~0.3 | ~1 |  |  |  |  |  |  |  |  |  | single-arm antibody 4035 (antibody, human IgG1, kappa, L234A L235A, Single-arm form of 3912; also called M701-4035) heavy: ELQLQESGPGLVKPSETLSLTCAVSGISFNDFHWAWIRQPPGKGLEWIGDINHRGHTSYNPSLKSRVTVSVDTSKNQFSLKLSSVTAADTAVYYCARDYPNFTFDLWGQGTLVTVSSASTKGPSVFPLAPSSKSTSGGTAALGCLVKDYFPEPVTVSWNSGALTSGVHTFPAVLQSSGLYSLSSVVTVPSSSLGTQTYICNVNHKPSNTKVDKKVEPKSCDKTHTCPPCPAPEAAGGPSVFLFPPKPKDTLMISRTPEVTCVVVDVSHEDPEVKFNWYVDGVEVHNAKTKPREEQYNSTYRVVSVLTVLHQDWLNGKEYKCKVSNKALGAPIEKTISKAKGQPREPQVYTLPPCREEMTKNQVSLWCLVKGFYPSDIAVEWESNGQPENNYKTTPPVLDSDGSFFLYSKLTVDKSRWQQGNVFSCSVMHEALHNHYTQKSLSLSPG light: not shown DKTHTCPPCPAPEAAGGPSVFLFPPKPKDTLMISRTPEVTCVVVDVSHEDPEVKFNWYVDGVEVHNAKTKPREEQYNSTYRVVSVLTVLHQDWLNGKEYKCKVSNKALGAPIEKTISKAKGQPREPQVCTLPPSREEMTKNQVSLSCAVKGFYPSDIAVEWESNGQPENNYKTTPPVLDSDGSFFLVSKLTVDKSRWQQGNVFSCSVMHEALHNHYTQKSLSLSPG
2 | ~0.5 | ~0.5 | ~0.9 |  |  |  |  |  |  |  |  |  | single-arm antibody 3900 (antibody, human IgG1, kappa, L234A L235A, also called M701-3900) heavy: EVQLQESGPGLVKPSETLSLTCAVSGVSYSDYHWAWIRQPPGKGLEWIGDINHKGKTNYNPSLKSRVTISVDTSKNQFSLKLSSVTAADTAVYYCARDYPNFLFDYWGQGTLVTVSSASTKGPSVFPLAPSSKSTSGGTAALGCLVKDYFPEPVTVSWNSGALTSGVHTFPAVLQSSGLYSLSSVVTVPSSSLGTQTYICNVNHKPSNTKVDKKVEPKSCDKTHTCPPCPAPEAAGGPSVFLFPPKPKDTLMISRTPEVTCVVVDVSHEDPEVKFNWYVDGVEVHNAKTKPREEQYNSTYRVVSVLTVLHQDWLNGKEYKCKVSNKALGAPIEKTISKAKGQPREPQVYTLPPCREEMTKNQVSLWCLVKGFYPSDIAVEWESNGQPENNYKTTPPVLDSDGSFFLYSKLTVDKSRWQQGNVFSCSVMHEALHNHYTQKSLSLSPG light: not shown DKTHTCPPCPAPEAAGGPSVFLFPPKPKDTLMISRTPEVTCVVVDVSHEDPEVKFNWYVDGVEVHNAKTKPREEQYNSTYRVVSVLTVLHQDWLNGKEYKCKVSNKALGAPIEKTISKAKGQPREPQVCTLPPSREEMTKNQVSLSCAVKGFYPSDIAVEWESNGQPENNYKTTPPVLDSDGSFFLVSKLTVDKSRWQQGNVFSCSVMHEALHNHYTQKSLSLSPG
3 | ~0.4 | ~0.4 | ~1 | 4.26 | 0.00168 | 394000 | 4.89 | 0.00214 | 438000 | 4.51 | 0.00208 | 462000 | single-arm antibody M701-3990 (antibody, human IgG1, kappa, L234A L235A, Single-arm form of 4019) heavy: ELQLQESGPGLVKPSETLSLTCAVSGVSFTDYHWAWIRQPPGKGLEWIGDINHRGHTNYNPSLKSRVTVSIDTSKNQFSLKLSSVTAADTAVYYCARDYPNFIYDYWGQGTLVTVSSASTKGPSVFPLAPSSKSTSGGTAALGCLVKDYFPEPVTVSWNSGALTSGVHTFPAVLQSSGLYSLSSVVTVPSSSLGTQTYICNVNHKPSNTKVDKKVEPKSCDKTHTCPPCPAPEAAGGPSVFLFPPKPKDTLMISRTPEVTCVVVDVSHEDPEVKFNWYVDGVEVHNAKTKPREEQYNSTYRVVSVLTVLHQDWLNGKEYKCKVSNKALGAPIEKTISKAKGQPREPQVYTLPPCREEMTKNQVSLWCLVKGFYPSDIAVEWESNGQPENNYKTTPPVLDSDGSFFLYSKLTVDKSRWQQGNVFSCSVMHEALHNHYTQKSLSLSPG light: not shown DKTHTCPPCPAPEAAGGPSVFLFPPKPKDTLMISRTPEVTCVVVDVSHEDPEVKFNWYVDGVEVHNAKTKPREEQYNSTYRVVSVLTVLHQDWLNGKEYKCKVSNKALGAPIEKTISKAKGQPREPQVCTLPPSREEMTKNQVSLSCAVKGFYPSDIAVEWESNGQPENNYKTTPPVLDSDGSFFLVSKLTVDKSRWQQGNVFSCSVMHEALHNHYTQKSLSLSPG
